Tests used:
[1] = target: T1, von Willebrand factor full length (Homo sapiens, UniProt P04275 SEQ:764-2813); assay: filter; DPBS, 0.1 mg/mL BSA, RT; details: tags: Calbiochem 681300; label: 5'-32P
Procedure: KD values were calculated by fitting the equation y=(max/(1+K/protein))+yint using KaleidaGraph (KaleidaGraph v. 3.51, Synergy Software).

[2] = target: von Willebrand factor A1 domain (Homo sapiens, UniProt P04275 SEQ:13-246); assay: filter; DPBS, 0.1 mg/mL BSA, 24 C; details: label: 5'-32P
Procedure: Based on this initial screen, KDs were determined for 12 of the best vWF dependent binding sequences using the dot blot assay and are reported in column 5 of Table 4 below.

[3] = target: T1, von Willebrand factor full length; assay: filter; 46% bound at 100 nM; details: tags: Calbiochem 681300
Procedure: (§1) For KD determination, chemically synthesized aptamers were purified using denaturing polyacrylamide gel electrophoresis, 5′end labeled with γ-³²P ATP and were tested for direct binding to full length human vWF (Calbiochem Cat.# 681300, La Jolla, Calif.). An 8 point protein titration was used in the dot blot binding assay (100 nM, 30 nM, 10 nM, 3 nM, 1 nM, 300 pM, 100 pM, 0 pM)) in 1× Dulbecco's PBS containing […] (final volume of 50 uL) for 30 minutes at room temperature. KD values were calculated by fitting the equation y=(max/(1+K/protein))+yint using KaleidaGraph (KaleidaGraph v. 3.51, Synergy Software).

[4] = target: T1, von Willebrand factor full length; assay: filter; 20 nM protein; details: tags: Calbiochem 681300
Procedure: (§2) When a significant positive ratio of binding of DNA in the presence of human or rabbit vWF A1 domain versus in the absence of protein was seen, the pools were cloned using the TOPO TA cloning kit (Invitrogen Cat.# 45-0641, Carlsbad, Calif.) according to the manufacturer's instructions. […] All unique clones were assayed twice in a 3-point dot blot screen (no protein target control, 20 nM full length human vWF (Calbiochem Cat.# 681300, La Jolla, Calif.), or 20 nM rabbit vWF A1 domain. The data is presented in the third and fourth columns of Table 17 below as the ratio of the fraction of the aptamer bound to the nitrocellulose in the presence of the target protein to the fraction of aptamer bound in the absence of the target protein.

[5] = target: T2, von Willebrand factor A1 domain (rabbit) (Oryctolagus cuniculus); assay: filter; 20 nM protein; details: tags: 6xHis
T2 chain: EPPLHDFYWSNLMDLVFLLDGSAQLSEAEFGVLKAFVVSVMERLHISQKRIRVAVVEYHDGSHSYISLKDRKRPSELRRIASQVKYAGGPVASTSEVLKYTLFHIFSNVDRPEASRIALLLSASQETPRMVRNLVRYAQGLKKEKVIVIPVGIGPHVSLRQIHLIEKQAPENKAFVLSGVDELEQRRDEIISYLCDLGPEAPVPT
Procedure: as §2

[6] = target: T1, von Willebrand factor full length; assay: filter; 43% bound at 100 nM; details: tags: Calbiochem 681300
Procedure: as §1

[7] = target: T1, von Willebrand factor full length; assay: filter; 40% bound at 100 nM; details: tags: Calbiochem 681300
Procedure: as §1

[8] = target: von Willebrand factor A1 domain (human) (Homo sapiens, UniProt P04275 SEQ:13-246); assay: filter; 100 nM protein
Source text: When a significant positive ratio of binding of RNA in the presence of human or rabbit vWF A1 domain versus in the absence of protein was seen, the pools were cloned using the TOPO TA cloning kit (Invitrogen, Cat.# 45-0641, Carlsbad, Calif.) according to the manufacturer's instructions. Round 9 and 12 pool templates were cloned and sequenced (125 total sequences), producing 48 unique clones. All unique clones were transcribed, desalted, 5-³²P end-labeled, and assayed in a 3-point dot blot screen (no protein target control, 100 nM human vWF A1 domain (SEQ ID NO 5, FIG. 3), or 100 nM rabbit vWF A1 domain (SEQ ID NO 6, FIG. 3). The data is presented in the third and fourth columns of Table 4 below as the ratio of the fraction of the aptamer bound to the nitrocellulose in the presence of the target protein to the fraction of aptamer bound in the absence of the target protein.

GGGACGGGGTGGGTAGACGGCGGGTATGTCCC (mixed, 2'-OH purines, deoxy pyrimidines) [rRdY minimer SEQ 183] was tested, and the Kd [1] was 10 nM.

With GGAGCCACACGACATTGGCGGGTTGTAATTACCACGCATGGCTCC (mixed, 2'-OH purines, deoxy pyrimidines) [rRdY minimer SEQ 189] the Kd [1] was 1 nM.

B1: AMX201.C8 (ARC840) (ssRNA)
RNA: GGAGCGCACUCAGCCACCCUCGCAAGCAUUUUAAGAAUGACUUGUGCCGCUGGCUGUUUUCGACCUCUCUGCUAGC
modifications: 2'-F pyrimidines
With B1 the Kd [2] was 0.2 nM.

B2: AMX201.H1 (ssRNA)
RNA: GGAGCGCACUCAGCCACUUUACGGUGAAAGUCUCUCGGGGUUCCGAGUUACGGUGCGUUUCGACCUCUCUGCUAGC
modifications: 2'-F pyrimidines
B2 was tested, and the Kd [2] was 189 nM.

B3: AMX198.E11 (ssRNA)
RNA: GGAGCGCACUCAGCCACGGUAACAUUGUUUCCGGCGAUUCUUUGAACGCCGUCGUGGUUUCGACCUCUCUGCUAGC
modifications: 2'-F pyrimidines
B3 showed a Kd [2] of 1060 nM.

In the case of GGCGTGCAGTGCCTTCGGCCGTGCGGTGCCTCCGTCACGCC (ssDNA, 2'-OMe at 1; 3'-idT) [ARC1194], the Kd [3] is reported as 3 nM.

B4: AMX236.C1 (ssDNA)
DNA: CTACCTACGATCTGACTAGCGGAATGAGAATGTTGGTGGATTGCTCAGGTCTGCTGGCTGCTTACTCTCATGTAGTTCC
B4 was tested, and the binding signal [4] was 1.03 ratio to no protein and the binding signal [5] was 3.28 ratio to no protein.

B5: AMX238.F5 (ssDNA)
DNA: CTACCTACGATCTGACTAGCGGAATGAGAAGCTGGTGGATTGCTCAGGTCTGCTGGCTGCTTACTCTCATGTAGTTCC
In the case of B5, the binding signal [4] is reported as 1.05 ratio to no protein and the binding signal [5] is reported as 4.4 ratio to no protein.

B6: AMX237.C1 (ssDNA)
DNA: CTACCTACGATCTGACTAGCGGAATGAGGATGCTGGTGGATTGCTCAGGTCTGCTGGCTGCTTACTCTCATGTAGTTCC
In the case of B6, the binding signal [4] is reported as 0.76 ratio to no protein and the binding signal [5] is reported as 3.47 ratio to no protein.

B7: AMX238.A6 (ssDNA)
DNA: CTACCTACGATCTGACTAGCGGAATGAGAATGCAGATGGATTGCTCAGGTCTGCTGGCTGCTTACTCTCATGTAGTTCC
For B7, the binding signal [4] was 0.92 ratio to no protein and the binding signal [5] was 3.47 ratio to no protein.

B8: AMX238.A11 (ssDNA)
DNA: CTACCTACGATCTGACTAGCGGAATGAGAGTGTTGGTGGATTGCTCAGGTCTGCTGGCTGCTTACTCTCATGTAGTTCC
In the case of B8, the binding signal [4] is reported as 0.85 ratio to no protein and the binding signal [5] is reported as 4.54 ratio to no protein.

B9: AMX236.C6 (ssDNA)
DNA: CTACCTACGATCTGACTAGCGGAATGAGAGTGCTGGTGGATTGCTCAGGTCTGCTGGCTGCTTACTCTCATGTAGTTCC
In the case of B9, the binding signal [4] is reported as 1.06 ratio to no protein and the binding signal [5] is reported as 5.77 ratio to no protein.

B10: AMX236.E2 (ssDNA)
DNA: CTACCTACGATCTGACTAGCGGAATGAGTATGCTGATGGATTGCTCAGGTCTGCTGGCTGCTTACTCTCATGTAGTTCC
B10 was tested, and the binding signal [4] was 0.93 ratio to no protein and the binding signal [5] was 3.59 ratio to no protein.

GGCGTGCAGTGCCTTCGGCCGTGCGGTGCCTCCGTCACGCC (ssDNA, 2'-OMe at 20; 3'-idT) [ARC1213] gave a Kd [6] of 6 nM.

B11: AMX237.E10 (ssDNA)
DNA: CTACCTACGATCTGACTAGCGGAATGAGAATGCTGGTGGATTGCTCAGGTCTGCTGGCTGCTTACTCTCATGTAGTTCC
With B11 the binding signal [5] was 6.04 ratio to no protein.

Work on GGCGTGCAGTGCCTTCGGCCGTGCGGTGCCTCCGTCACGCC (ssDNA, 2'-OMe at 23; 3'-idT) [ARC1216] yielded a Kd [7] of 0.6 nM.

B12: AMX237.B12 (ssDNA)
DNA: CTACCTACGATCTGACTAGCGGAATGAGAATGCAGGTGGATTGCTCAGGTCTGCTGGCTGCTTACTCTCATGTAGTTCC
For B12, the binding signal [5] was 4.67 ratio to no protein.

B13: AMX238.F6 (ssDNA)
DNA: CTACCTACGATCTGACTAGCGGAATGAGTATGCTGGTGGATTGCTCAGGTCTGCTGGCTGCTTACTCTCATGTAGTTCC
B13 was tested, and the binding signal [5] was 5.36 ratio to no protein.

GGCGTGCAGTGCCTTCGGCCGTGCGGTGCCTCCGTCACGCC (ssDNA, 2'-OMe at 29; 3'-idT) [ARC1222] was tested, and the Kd [7] was 0.9 nM.

Work on GGCGTGCAGTGCCTTCGGCCGTGCGGTGCCTCCGTCACGCC (ssDNA, 2'-OMe at 3; 3'-idT) [ARC1196] yielded a Kd [3] of 2 nM.

Binder GGCGTGCAGTGCCTTCGGCCGTGCGGTGCCTCCGTCACGCC (ssDNA, 2'-OMe at 34; 3'-idT) [ARC1227] has a Kd [7] of 3 nM.

With GGCGTGCAGTGCCTTCGGCCGTGCGGTGCCTCCGTCACGCC (ssDNA, 2'-OMe at 37; 3'-idT) [ARC1230] the Kd [3] was 3 nM.

In the case of GGCGTGCAGTGCCTTCGGCCGTGCGGTGCCTCCGTCACGCC (ssDNA, 2'-OMe at 4; 3'-idT) [ARC1197], the Kd [3] is reported as 2 nM.

Work on GGCGTGCAGTGCCTTCGGCCGTGCGGTGCCTCCGTCACGCC (ssDNA, 2'-OMe at 11,12,13,17,18,19; 3'-idT) [ARC1240] yielded a Kd [7] of 4 nM.

GGCGTGCAGUGCCTTCGGCCGTGCGGTGCCTCCGTCACGCC (ssDNA, 2'-OMe at 10 (mU); 3'-idT) [ARC1203] showed a Kd [7] of 3 nM.

B14: AMX201.B3 (ssRNA)
RNA: GGAGCGCACUCAGCCACAGAGCCCUGAGUGUAUGAUCGCCGAGAUCUAUCGAUGCUUUUUCGACCUCUCUGCUAGC
modifications: 2'-F pyrimidines
For B14, the binding signal [8] was 1.69 ratio to no protein.

B15: AMX201.B11 (ssRNA)
RNA: GGAGCGCACUCAGCCACACCGAGGCUGGAUAUCUACGAGAGGAAGUGCUGCUUGAAUUUCGACCUCUCUGCUAGC
modifications: 2'-F pyrimidines
For B15, the binding signal [8] was 1.55 ratio to no protein.

B16: AMX201.D10 (ssRNA)
RNA: GGAGCGCACUCAGCCACACUGAGGCUGGAUAUCUACGAGAGGAAGUGCUGCUUGGAUUUCGACCUCUCUGCUAGC
modifications: 2'-F pyrimidines
With B16 the binding signal [8] was 1.59 ratio to no protein.

B17: AMX201.H4 (ssRNA)
RNA: GGAGCGCACUCAGCCACUAACGGUUGAUCUCAGGACUAAUAGUCAACAAGGAUGCGUUUCGACCUCUCUGCUAGC
modifications: 2'-F pyrimidines
With B17 the binding signal [8] was 1.79 ratio to no protein.

B18: AMX201.H11 (ssRNA)
RNA: GGAGCGCACUCAGCCACCCUGUCGUCUUUUGGUAGUCAGCCAAAAGCUAGUUGGUUGUUUCGACCUCUCUGCUAGC
modifications: 2'-F pyrimidines
In the case of B18, the binding signal [8] is reported as 1.75 ratio to no protein.

B19: AMX201.D4 (ssRNA)
RNA: GGAGCGCACUCAGCCACUGGGGCUGAUCUCGCACGAUAGUUCGUGUCAAGGAUGCGUUUUCGACCUCUCUGCUAGC
modifications: 2'-F pyrimidines
B19 was tested, and the binding signal [8] was 2.23 ratio to no protein.

B20: AMX201.D3 (ssRNA)
RNA: GGAGCGCACUCAGCCACGCCCACGUCAAAUUAUAGUCUACUUUGAUGUGCCCGUGGUUUCGACCUCUCUGCUAGC
modifications: 2'-F pyrimidines
In the case of B20, the binding signal [8] is reported as 1.76 ratio to no protein.

B21: AMX201.A8 (ssRNA)
RNA: GGAGCGCACUCAGCCACGCUGUACACUGAUGUUGUAACAUGUACCCCCUGGCUGUUUCGACCUCUCUGCUAGC
modifications: 2'-F pyrimidines
In the case of B21, the binding signal [8] is reported as 1.82 ratio to no protein.
